# Results published in article PMC7442819, “Taf14 recognizes a common motif in transcriptional machineries and facilitates their clustering by phase separation” (Nature Communications, 2020).
# B1: Ino80_(368–390) [Saccharomyces cerevisiae] / Taf14ET (Taf14_(174–244)) [Saccharomyces cerevisiae] (parent complex)
# chain 1: DSKLNIKITLKQYHVKRLKKLIN
# chain 2: KGSVDLEKLAFGLTKLNEDDLVGVVQMVTDNKTPEMNVTNNVEEGEFIIDLYSLPEGLLKSLWDYVKKNTE
# B2: Snf5_(771–800) [Saccharomyces cerevisiae] / Taf14ET (Taf14_(174–244)) [Saccharomyces cerevisiae] (parent complex)
# chain 1: SPPCYIIDHIPGHSLLLSIKLPGKVNTKEE
# chain 2: B1 chain 2
# B3: Sth1EBM (Sth1_(1183–1240)) [Saccharomyces cerevisiae] / Taf14ET (Taf14_(174–244)) [Saccharomyces cerevisiae] (parent complex)
# chain 1: EVKSSSVEIINGSESKKKKPKLTVKIKLNKTTVLENNDGKRAEEKPESKSPAKKTAAK
# chain 2: B1 chain 2
# B4: Sth1^WT-TAP [Saccharomyces cerevisiae] / Taf14-HA [Saccharomyces cerevisiae] (parent complex)
# chain 1: MLQEQSELMSTVMNNTPTTVAALAAVAAASETNGKLGSEEQPEITIPKPRSSAQLEQLLYRYRAIQNHPKENKLEIKAIEDTFRNISRDQDIYETKLDTLRKSIDKGFQYDEDLLNKHLVALQLLEKDTDVPDYFLDLPDTKNDNTTAIEVDYSEKKPIKISADFNAKAKSLGLESKFSNATKTALGDPDTEIRISARISNRINELERLPANLGTYSLDDCLEFITKDDLSSRMDTFKIKALVELKSLKLLTKQKSIRQKLINNVASQAHHNIPYLRDSPFTAAAQRSVQIRSKVIVPQTVRLAEELERQQLLEKRKKERNLHLQKINSIIDFIKERQSEQWSRQERCFQFGRLGASLHNQMEKDEQKRIERTAKQRLAALKSNDEEAYLKLLDQTKDTRITQLLRQTNSFLDSLSEAVRAQQNEAKILHGEEVQPITDEEREKTDYYEVAHRIKEKIDKQPSILVGGTLKEYQLRGLEWMVSLYNNHLNGILADEMGLGKTIQSISLITYLYEVKKDIGPFLVIVPLSTITNWTLEFEKWAPSLNTIIYKGTPNQRHSLQHQIRVGNFDVLLTTYEYIIKDKSLLSKHDWAHMIIDEGHRMKNAQSKLSFTISHYYRTRNRLILTGTPLQNNLPELWALLNFVLPKIFNSAKTFEDWFNTPFANTGTQEKLELTEEETLLIIRRLHKVLRPFLLRRLKKEVEKDLPDKVEKVIKCKLSGLQQQLYQQMLKHNALFVGAGTEGATKGGIKGLNNKIMQLRKICNHPFVFDEVEGVVNPSRGNSDLLFRVAGKFELLDRVLPKFKASGHRVLMFFQMTQVMDIMEDFLRMKDLKYMRLDGSTKTEERTEMLNAFNAPDSDYFCFLLSTRAGGLGLNLQTADTVIIFDTDWNPHQDLQAQDRAHRIGQKNEVRILRLITTDSVEEVILERAMQKLDIDGKVIQAGKFDNKSTAEEQEAFLRRLIESETNRDDDDKAELDDDELNDTLARSADEKILFDKIDKERMNQERADAKAQGLRVPPPRLIQLDELPKVFREDIEEHFKKEDSEPLGRIRQKKRVYYDDGLTEEQFLEAVEDDNMSLEDAIKKRREARERRRLRQNGTKENEIETLENTPEASETSLIENNSFTAAVDEETNADKETTASRSKRRSSRKKRTISIVTAEDKENTQEESTSQENGGAKVEEEVKSSSVEIINGSESKKKKPKLTVKIKLNKTTVLENNDGKRAEEKPESKSPAKKTAAKKTKTKSKSLGIFPTVEKLVEEMREQLDEVDSHPRTSIFEKLPSKRDYPDYFKVIEKPMAIDIILKNCKNGTYKTLEEVRQALQTMFENARFYNEEGSWVYVDADKLNEFTDEWFKEHSS
# chain 2: MVATVKRTIRIKTQQHILPEVPPVENFPVRQWSIEIVLLDDEGKEIPATIFDKVIYHLHPTFANPNRTFTDPPFRIEEQGWGGFPLDISVFLLEKAGERKIPHDLNFLQESYEVEHVIQIPLNKPLLTEELAKSGSTEETTANTGTIGKRRTTTNTTAEPKAKRAKTGSASTVKGSVDLEKLAFGLTKLNEDDLVGVVQMVTDNKTPEMNVTNNVEEGEFIIDLYSLPEGLLKSLWDYVKKNTE
# Variants of: B1
# Assay: ITC; parent: 250 nM
row,Variant,Kd [µM]
1,chain 1 DSKLNAKITLKQYHVKRLKKLIN [chain 1 I6A],3.86
2,chain 1 DSKLNIKITAKQYHVKRLKKLIN [chain 1 L10A],3.87

# Variants of: B2
# Assay: ITC; parent: 2.48e+03 nM
row,Variant,Kd [µM]
1,chain 1 SPPCYIIDHIPGHSLLLSAKLPGKVNTKEE [chain 1 I19A],189
2,chain 1 SPPCYIIDHIPGHSLLASIKLPGKVNTKEE [chain 1 L17A],41.5

# Variants of: B3
# Assay: ITC; parent: 50 nM
row,Variant,Kd [nM]
1,chain 1 EVKSSSVEIINGSESKKKKPKLTVKAKLNKTTVLENNDGKRAEEKPESKSPAKKTAAK [chain 1 I26A],13400
2,chain 1 EVKSSSVEIINGSESKKKKPKATVKIKLNKTTVLENNDGKRAEEKPESKSPAKKTAAK [chain 1 L22A],2060
3,chain 1 EVKSSSVEIINGSESKKKKPKLTVEIKLNKTTVLENNDGKRAEEKPESKSPAKKTAAK [chain 1 K25E],7690
4,chain 1 EVKSSSVEIINGSESKKKKPKLTAKIKLNKTTVLENNDGKRAEEKPESKSPAKKTAAK [chain 1 V24A],2040
5,chain 1 EVKSSSVEIINGSESKKKKPKLTVKIELNKTTVLENNDGKRAEEKPESKSPAKKTAAK [chain 1 K27E],3940
6,chain 1 EVKSSSVEIINGSESKKKKPKLTVKIKANKTTVLENNDGKRAEEKPESKSPAKKTAAK [chain 1 L28A],1140

# Variants of: B3
# Assay: ITC; parent: 50 nM
# Remark: another data set of the same source
row,Variant,Kd [nM]
1,chain 2 KGSVDLEKLAFGLTKLNEDDLVGVVQMVTDNKTPEMNVTNNVEEGERIIDLYSLPEGLLKSLWDYVKKNTE [chain 2 F47R],3500
2,chain 2 KGSVDLEKLAFGLTKLNEDDLVGVVQMVTDNKTPEMNVTNNVEEGEAIIDLYSLPEGLLKSLWDYVKKNTE [chain 2 F47A],680

# Variants of: B4
# Assay: Co-immunoprecipitation; IP: HA; IB: anti-TAP; parent: 1
row,Variant,ratio to parent
1,"chain 1 L1204A, chain 1 V1206A, chain 1 I1208A, chain 1 L1210A",0.38
